This is an account of results in paper PMC12012478, “Roquin exhibits opposing effects on RNA stem-loop stability through its two ROQ domain binding sites”.

The target of data set [1] is T1, coreROQ (Roquin-1 core ROQ domain) (murine) (UniProt Q4VGL6).
T1 sequence: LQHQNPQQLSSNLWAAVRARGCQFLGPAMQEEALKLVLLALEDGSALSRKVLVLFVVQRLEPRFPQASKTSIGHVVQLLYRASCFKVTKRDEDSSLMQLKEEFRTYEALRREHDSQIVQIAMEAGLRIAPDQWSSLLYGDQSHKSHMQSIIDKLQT
Kind of data set: optical tweezers (kinetics, koff/kon). The note with it: low-salt buffer, Protein/RNA buffer 150 mM NaCl, 50 mM Tris pH 7.0, 1 mM TCEP, OT in low-salt near-physiological buffer (composition not in material), EMSA 3 nM RNA, 0-20 uM ….

The target of data set [2] is T2, extROQ (Roquin-1 extended ROQ domain) (murine) (UniProt Q4VGL6).
T2 sequence: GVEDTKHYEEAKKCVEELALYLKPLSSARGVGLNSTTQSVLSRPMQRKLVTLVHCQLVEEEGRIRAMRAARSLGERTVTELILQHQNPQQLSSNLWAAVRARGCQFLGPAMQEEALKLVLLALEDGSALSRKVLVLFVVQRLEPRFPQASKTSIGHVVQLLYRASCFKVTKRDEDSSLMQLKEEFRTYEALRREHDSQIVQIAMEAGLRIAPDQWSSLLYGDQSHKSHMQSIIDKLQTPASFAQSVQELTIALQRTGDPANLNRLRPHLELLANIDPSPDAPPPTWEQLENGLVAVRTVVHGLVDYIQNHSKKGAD
In words: optical tweezers (kinetics, koff/kon). The conditions noted are these: low-salt buffer, Protein/RNA buffer 150 mM NaCl, 50 mM Tris pH 7.0, 1 mM TCEP, OT in low-salt near-physiological buffer (composition not in material), EMSA 3 nM RNA, 0-20 uM ….

Data set [3] deals with T3, coreROQ (Roquin-1 core ROQ domain) (murine, UniProt Q4VGL6 171-326).
T3 sequence: T1 sequence
Kind of data set: hydroxyl radical footprinting; residues 62-87 protected, 88-100 more exposed; Protein/RNA buffer 150 mM NaCl, 50 mM Tris pH 7.0, 1 mM TCEP; OT in low-salt near-physiological buffer (composition not in material); EMSA 3 nM RNA, 0-20 uM protein, 6% native PAGE at 4 C. The conditions noted are these: protein: recombinant; tags: His tag removed by TEV (Ni IMAC; tag type implied); label: 5' fluorescein in EMSA; none stated for NMR/CD; hairpin with hexaloop and central bulge.

Data set [4] addresses T4, extROQ (Roquin-1 extended ROQ domain) (murine, UniProt Q4VGL6 89-404).
T4 sequence: T2 sequence
Described as above. The conditions noted are these: protein: recombinant; tags: His tag removed by TEV (Ni IMAC; tag type implied); label: 5' fluorescein in EMSA; none stated for NMR/CD; hairpin with hexaloop and central bulge. For orientation: In EMSA bound probe runs differently from free probe, usually more slowly.

One may read the Kd as the concentration at which binding is half-saturated. As for “GGCAGGGCUGACGUAGUUGGAGUGGUGCGGGAGGGCCUGCCAGUACCCUCCACACCGUUCUAGGUGCUGGGCUGGCUCUGGGCAGUGAGGGCAGAAUUCAGGUG [Ox40 ADE, optical tweezers construct]”, the Kd in data set [1] (extrapolated to zero force) was 4.8 nM; in data set [2] (extrapolated to zero force) it was 1.67 nM.
On to “GGCAGGGCUGACGUAGUUGGAGUGGUGCGGGAGGGGCUUUCCUAUGUAUGCUAUGCAUACUACAGUGAGGGCAGAAUUCAGGUG [Ox40 CDE, optical tweezers construct]”, for which the Kd came out at 33 nM in data set [1] (zero force) and 2 nM in data set [2] (zero force).
For the molecule GCCUGCCAGUACCCUCCACACCGUUCUAGGUGCUGGGCUGGCUCUGGGC (structured_RNA) [Ox40 ADE, bulk RNA], the binding result in data set [3] and in data set [4] was “binds” in each case.
